T1: CD122/CD132 complex on HEK-Blue IL-2 cells (UniProt P14784 27-551; P31785 23-369, limits assumed)
T1 sequence (looked up) 1: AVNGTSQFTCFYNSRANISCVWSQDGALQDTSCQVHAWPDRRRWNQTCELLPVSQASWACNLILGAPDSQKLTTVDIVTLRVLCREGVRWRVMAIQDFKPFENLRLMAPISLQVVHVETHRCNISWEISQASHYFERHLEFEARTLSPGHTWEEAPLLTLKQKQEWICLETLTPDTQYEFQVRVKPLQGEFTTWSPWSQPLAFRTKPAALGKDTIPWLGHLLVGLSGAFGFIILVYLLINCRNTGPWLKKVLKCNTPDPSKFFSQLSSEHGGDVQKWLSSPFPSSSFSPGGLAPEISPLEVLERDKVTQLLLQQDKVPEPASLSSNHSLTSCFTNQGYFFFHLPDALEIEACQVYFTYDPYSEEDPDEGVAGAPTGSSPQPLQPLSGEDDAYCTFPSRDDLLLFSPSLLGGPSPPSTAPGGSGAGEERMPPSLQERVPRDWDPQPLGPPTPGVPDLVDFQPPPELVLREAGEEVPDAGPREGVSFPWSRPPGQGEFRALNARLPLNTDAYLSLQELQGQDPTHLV
T1 sequence (looked up) 2: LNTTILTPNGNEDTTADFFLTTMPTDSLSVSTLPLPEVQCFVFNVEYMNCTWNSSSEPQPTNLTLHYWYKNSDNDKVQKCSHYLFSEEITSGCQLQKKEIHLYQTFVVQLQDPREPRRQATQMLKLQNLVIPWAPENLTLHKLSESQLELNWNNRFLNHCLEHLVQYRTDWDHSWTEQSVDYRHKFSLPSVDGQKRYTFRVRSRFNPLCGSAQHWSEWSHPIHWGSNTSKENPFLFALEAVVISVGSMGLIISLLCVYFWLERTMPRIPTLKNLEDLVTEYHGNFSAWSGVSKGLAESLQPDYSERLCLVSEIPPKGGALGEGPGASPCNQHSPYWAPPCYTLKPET

T2: recombinant human CD122 (human, UniProt P14784 27-239, limits assumed)
T2 construct: also called IL-2Rβ
T2 sequence (looked up): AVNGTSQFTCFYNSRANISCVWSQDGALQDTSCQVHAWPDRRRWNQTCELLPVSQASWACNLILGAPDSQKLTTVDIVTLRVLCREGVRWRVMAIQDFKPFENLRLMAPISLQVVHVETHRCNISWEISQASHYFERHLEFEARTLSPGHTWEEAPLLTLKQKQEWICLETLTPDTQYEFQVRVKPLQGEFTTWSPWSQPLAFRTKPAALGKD

T3: recombinant human CD132 (human, UniProt P31785 23-262, limits assumed)
T3 construct: also called IL-2Rγ
T3 sequence (looked up): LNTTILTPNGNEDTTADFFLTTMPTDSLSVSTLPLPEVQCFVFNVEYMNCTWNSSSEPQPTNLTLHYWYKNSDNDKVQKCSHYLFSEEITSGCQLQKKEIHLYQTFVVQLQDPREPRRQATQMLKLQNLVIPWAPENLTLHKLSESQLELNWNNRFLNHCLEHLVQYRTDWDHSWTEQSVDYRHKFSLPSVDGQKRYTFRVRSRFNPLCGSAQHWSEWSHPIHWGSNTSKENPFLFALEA

T4: human CD122 on HEK293 cells (human, UniProt P14784 27-551)
T4 construct: whole, on cells; also called cell surface CD122
T4 sequence (looked up): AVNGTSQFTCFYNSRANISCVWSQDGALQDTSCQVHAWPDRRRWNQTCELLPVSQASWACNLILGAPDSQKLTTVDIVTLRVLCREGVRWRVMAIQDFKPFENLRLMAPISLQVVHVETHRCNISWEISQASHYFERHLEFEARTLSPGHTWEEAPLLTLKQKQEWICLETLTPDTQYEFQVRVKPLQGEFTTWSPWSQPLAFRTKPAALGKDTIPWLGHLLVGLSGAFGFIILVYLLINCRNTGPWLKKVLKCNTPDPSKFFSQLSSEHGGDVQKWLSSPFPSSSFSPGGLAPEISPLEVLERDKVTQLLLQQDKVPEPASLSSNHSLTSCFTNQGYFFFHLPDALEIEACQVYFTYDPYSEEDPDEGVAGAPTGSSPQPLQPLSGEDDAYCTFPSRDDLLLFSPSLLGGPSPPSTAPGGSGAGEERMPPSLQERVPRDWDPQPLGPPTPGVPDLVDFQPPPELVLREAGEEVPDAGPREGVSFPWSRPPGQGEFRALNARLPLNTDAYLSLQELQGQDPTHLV

T5: human CD132 on HEK293 cells (human, UniProt P31785 23-369)
T5 construct: whole, on cells; also called cell surface CD132
T5 sequence (looked up): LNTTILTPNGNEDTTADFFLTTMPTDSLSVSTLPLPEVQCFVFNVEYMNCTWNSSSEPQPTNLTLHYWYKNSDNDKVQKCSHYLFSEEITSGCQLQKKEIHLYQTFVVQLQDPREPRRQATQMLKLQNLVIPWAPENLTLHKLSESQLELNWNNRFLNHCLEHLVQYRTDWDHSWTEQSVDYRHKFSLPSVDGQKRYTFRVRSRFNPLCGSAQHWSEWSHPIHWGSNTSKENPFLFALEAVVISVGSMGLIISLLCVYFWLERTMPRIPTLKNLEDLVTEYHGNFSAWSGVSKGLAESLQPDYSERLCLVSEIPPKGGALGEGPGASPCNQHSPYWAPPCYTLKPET


What was measured:
[1] = target: T1, CD122/CD132 complex on HEK-Blue IL-2 …; assay: cell-based or functional assay
[2] = target: T2, recombinant human CD122; assay: ELISA, plate coated with 1 µg/mL recombinant human CD122
Procedure: (§1) Plates were washed three times with PBST, added HRP labeled anti-human IgG secondary antibody and incubated at RT for 15 minutes, then washed 5 times with PBST. For color development, 100 μl of tetramethylbenzidine (TMB) chromogenic solution was added to each well, the reaction was quenched by 1 N HCl and absorbance at 450 nm was measured on a microplate reader. Binding signals were plotted against antibody concentration with GraphPad Prism 6.0 software and EC₅₀ values were calculated accordingly.

[3] = target: T3, recombinant human CD132; assay: ELISA, plate coated with 1 µg/mL recombinant human CD132
Procedure: as §1

[4] = target: T4, human CD122 on HEK293 cells; assay: Flow cytometry (MFI) on HEK293 cells overexpressing human CD122; the table gives no unit, the axis is Fab conc.(nM)
Procedure: (§2) Briefly, a 96-well plate was seeded with 3×10⁵ cells each well, centrifuged at 400 g for 5 minutes and supernatants discarded, then added 100 μl of antibody (5× serial dilutions, 0.0064 to 100 nM) each well and gently mixed. After 60 minutes of incubation at 4° C., plates were washed several times to remove excess antibodies. Secondary fluorochrome-conjugated goat anti-human IgG antibody (Jackson Immunoresearch, Cat No. 109-606-098) was then added and incubated with cells at 4° C. for 20 minutes. After another round of centrifugation and washing, cells were resuspended in assay buffer (1X PBS containing 2% FBS) for reading on a flow-cytometer. Median Fluorescence Intensity (MFI) readouts were plotted against antibody concentration and analyzed with GraphPad Prism 6.0 software.

[5] = target: T5, human CD132 on HEK293 cells; assay: Flow cytometry (MFI) on HEK293 cells overexpressing human CD132; the table gives no unit, the axis is Fab conc.(nM); the curve has no upper plateau in the range shown
Procedure: as §2

[6] = target: T3, recombinant human CD132; assay: hybridoma supernatant screening, method not described

Row | Binder | EC50 from SEAP reporter gene assay [1] [pM] | EC50 [2] [pM] | EC50 [3] [pM] | EC50 [4] [pM] | EC50 [5] [pM] | binding result [6]
1 | FIT2019-86b (bispecific antibody, human IgG1, kappa, L234A L235A, FIT-Ig with mouse V domains of CD122-mAb77 (outer Fab) and CD132-mAb17 (inner Fab), human constant domains; also called anti-CD122/CD132 FIT2019-86b) chain 1: not shown chain 2: QVQLQQSGPELVKPGASVKMSCKASGYRFSDYVISWVKQRSGQGLEWIGEIYPGDGNTYYNEMFKGRATLTADKSPNTAYMKLSSLTSEDSALYFCARGSYTYDNYAMDFWGQGTSVTVSSASTKGPSVFPLAPSSKSTSGGTAALGCLVKDYFPEPVTVSWNSGALTSGVHTFPAVLQSSGLYSLSSVVTVPSSSLGTQTYICNVNHKPSNTKVDKKVEPKSC chain 3: DIQMTQTPSSLSASLGDRVTISCRASQDISNYLNWYQQKPDGTVKLLIYYKSRLHSGVPSRFSGSGSGTEYSLTINNLEQEDFATYFCHQGHTIPFTFGSGTKLEIKRTVAAPSVFIFPPSDEQLKSGTASVVCLLNNFYPREAKVQWKVDNALQSGNSQESVTEQDSKDSTYSLSSTLTLSKADYEKHKVYACEVTHQGLSSPVTKSFNRGEC | 125 | 324 | 662 | 2200 | 75600 | –
2 | CD132-mAb17 (antibody, V domains shown, Mouse hybridoma antibody; also called clone #CD132-mAb17; mAb CD132-mAb17) VH: EVQLQQPGSELVRPGASVKLSCKASGYTFTSYWMHWMKQRPGQGLEWIGHIYLGGGATNYAEKFRSKATLTADTSSSTAYMQLSSLTSEDSAVYYCTRSQPYYYGMDSWGQGTSVTVSS VL: DIQMTQTPSSLSASLGDRVTISCRASQDISNYLNWYQQKPDGTVKLLIYYKSRLHSGVPSRFSGSGSGTEYSLTINNLEQEDFATYFCHQGHTIPFTFGSGTKLEIK | – | – | – | – | – | binds

— US20250002594A1 (SHANGHAI EPIMAB BIOTHERAPEUTICS, published 2025)
